Laboratory results reported in the supplement of paper PMC10126150.
± gives the standard deviation of the averaged measurements.

The sequences below were run on ATP (assay: switch fluorescence ratio, 500 uM ATP over buffer (Cy3 cluster intensity, sum of 5 cycles each) (fold (ratio)); higher = stronger signal-on switching upon ATP binding; sequences stand for … in TCGTCGGCAGCGTCAGATGTGTATAAGAGACAGTTTTTTTTTTTTTTTTTTTTTTTTT…TC). Details: aptamer strand: ATP DNA aptamer (quencher-CACCTGGGGGAGTATTGCGGAGGAAGG + anchor), 100 nM annealed; ATP concentration: 500 uM.
In short: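 The fluorescence ratio divides summed target-cycle Cy3 intensity by summed buffer-cycle Cy3 intensity for each cluster and is averaged per switch-domain sequence. Cy3-labelled switching-strand clusters on a modified Illumina MiSeq flow-cell were annealed to 100 nM quencher-labelled ATP aptamer, then imaged in selection buffer and again after 15 min with 500 uM ATP at 22 °C. Five such cycles were run, with NaOH stripping and re-annealing between them, and clusters outside 100-1000 RFU were excluded.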
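Also: ATP exposure 15 min at 22 °C before imaging.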

| Sequence | switch fluorescence ratio |
| --- | --- |
| GTCAATGGTG | 0.9901 ± 0.0074 |
| GTCAATTGAT | 0.9924 ± 0.0074 |
| GTCAATTTGT | 1.02 ± 0.018 |
| GTCACAACGG | 0.999 ± 0.024 |
| GTCACACTAT | 1.02 ± 0.034 |
| GTCACAGGCT | 1.02 ± 0.026 |
| GTCACAGTTG | 1.015 ± 0.0045 |
| GTCAGAAATG | 0.982 ± 0.013 |
| GTCAGGAAGT | 1.02 ± 0.016 |
| GTCAGGGTTG | 1 ± 0.048 |
| GTCAGTAGGC | 0.991 ± 0.017 |
| GTCATAGATT | 0.989 ± 0.011 |
| GTCATAGCGT | 0.977 ± 0.016 |
| GTCATAGGGG | 1.01 ± 0.026 |
| GTCATAGTTC | 0.966 ± 0.015 |
| GTCATCAGGT | 1.008 ± 0.0058 |
| GTCATGGTAG | 1.02 ± 0.031 |
| GTCATTGATT | 1.01 ± 0.011 |
| GTCCAAAAAC | 1.15 ± 0.038 |
| GTCCACCTAC | 1.38 ± 0.015 |
| GTCCATCCCA | 1.001 ± 0.009 |
| GTCCCGACTT | 1.01 ± 0.013 |
| GTCCGGGGCT | 1.04 ± 0.036 |
| GTCCGGGGGT | 1.07 ± 0.11 |
| GTCCTTATTT | 1.08 ± 0.022 |

| Sequence | switch fluorescence ratio |
| --- | --- |
| GTCCTTGATA | 1.01 ± 0.024 |
| GTCGAGGATG | 1.018 ± 0.0049 |
| GTCGCGGGGT | 1.027 ± 0.0036 |
| GTCGCTGTGG | 1.04 ± 0.0021 |
| GTCGGAGCGA | 1.83 ± 0.57 |
| GTCGGAGGGG | 0.982 ± 0.043 |
| GTCGGGAAGT | 0.958 ± 0.024 |
| GTCGGGGCTG | 0.972 ± 0.049 |
| GTCGGGGGTG | 0.983 ± 0.041 |
| GTCGGTTTTT | 0.972 ± 0.022 |
| GTCGTGCGTA | 1.03 ± 0.099 |
| GTCTAAATCG | 0.981 ± 0.015 |
| GTCTAAGGAA | 0.993 ± 0.016 |
| GTCTACATTG | 0.997 ± 0.01 |
| GTCTAGAAAG | 0.985 ± 0.016 |
| GTCTCGTTCC | 1.09 ± 0.14 |
| GTCTGAACGT | 0.995 ± 0.081 |
| GTCTGGCAGT | 1.01 ± 0.043 |
| GTCTGTATGT | 1.015 ± 0.0028 |
| GTCTGTGGGA | 0.9998 ± 0.0091 |
| GTCTGTTCGC | 1.02 ± 0.085 |
| GTCTTATATT | 1.01 ± 0.06 |
| GTCTTCACGG | 0.999 ± 0.01 |
| GTCTTCATGG | 0.989 ± 0.02 |
| GTCTTTGTTA | 1.01 ± 0.022 |

| Sequence | switch fluorescence ratio |
| --- | --- |
| GTGAAAAATT | 0.9862 ± 0.0086 |
| GTGAAAGTTT | 0.998 ± 0.062 |
| GTGAAATAGG | 0.981 ± 0.014 |
| GTGAAATTGT | 1.01 ± 0.034 |
| GTGAACGGCG | 1.06 ± 0.014 |
| GTGAATGGGG | 0.969 ± 0.042 |
| GTGAATTGGG | 1.03 ± 0.03 |
| GTGACAGGGG | 1.05 ± 0.033 |
| GTGACCCCTA | 1.13 ± 0.063 |
| GTGACGAGTG | 0.993 ± 0.047 |
| GTGACTCCGA | 1.78 ± 0.12 |
| GTGACTTTGT | 1 ± 0.023 |
| GTGACTTTTA | 1.01 ± 0.035 |
| GTGAGAGCAT | 1.05 ± 0.028 |
| GTGAGAGGGT | 0.998 ± 0.029 |
| GTGAGATATT | 0.989 ± 0.043 |
| GTGAGCATGT | 1.01 ± 0.024 |
| GTGAGCGACG | 0.965 ± 0.027 |
| GTGAGGGAAC | 0.9729 ± 0.0052 |
| GTGAGGGACG | 0.999 ± 0.081 |
| GTGAGGGTCG | 1.01 ± 0.011 |
| GTGAGGTGCA | 1.01 ± 0.052 |
| GTGAGTAAGC | 1 ± 0.0035 |
| GTGAGTCTGT | 0.9891 ± 0.001 |
| GTGAGTTGGG | 1.01 ± 0.014 |

| Sequence | switch fluorescence ratio |
| --- | --- |
| GTGATAAAGG | 1.01 ± 0.03 |
| GTGATAAGGT | 1 ± 0.021 |
| GTGATAGATG | 1.013 ± 0.01 |
| GTGATCTATA | 0.99 ± 0.025 |
| GTGATTCGGG | 0.972 ± 0.013 |
| GTGATTGGCT | 0.978 ± 0.016 |
| GTGATTTATT | 0.988 ± 0.019 |
| GTGATTTTAT | 0.969 ± 0.028 |
| GTGATTTTTT | 1.01 ± 0.019 |
| GTGCATGCGT | 0.998 ± 0.03 |
| GTGCCAGGAT | 1.03 ± 0.052 |
| GTGCCTGATG | 1.05 ± 0.046 |
| GTGCGAAATC | 1.25 ± 0.033 |
| GTGCGAACTT | 1.015 ± 0.0028 |
| GTGCGAGAAC | 1.01 ± 0.025 |
| GTGCGAGAGC | 1.01 ± 0.043 |
| GTGCGATTTA | 0.992 ± 0.034 |
| GTGCGCAGAA | 0.988 ± 0.015 |
| GTGCGCCGGT | 1.02 ± 0.036 |
| GTGCGGTGGC | 1.04 ± 0.038 |
| GTGCTAAGAG | 0.969 ± 0.043 |
| GTGCTATAGT | 1.031 ± 0.0018 |
| GTGCTTAATT | 1 ± 0.05 |
| GTGCTTCGGT | 0.948 ± 0.026 |
| GTGCTTTTTT | 0.993 ± 0.013 |

| Sequence | switch fluorescence ratio |
| --- | --- |
| GTGGAACATT | 1.02 ± 0.049 |
| GTGGAACGTA | 0.976 ± 0.015 |
| GTGGAAGTCC | 1 ± 0.022 |
| GTGGAAGTGG | 1.02 ± 0.034 |
| GTGGAATATT | 1.04 ± 0.063 |
| GTGGACCGGA | 1.06 ± 0.012 |
| GTGGACTTGC | 0.973 ± 0.042 |
| GTGGATGGAC | 1.03 ± 0.022 |
| GTGGATTGGA | 1.05 ± 0.024 |
| GTGGCAAAGA | 0.993 ± 0.023 |
| GTGGCAAGTT | 0.97 ± 0.017 |
| GTGGCACG | 1.01 ± 0.025 |
| GTGGCGAGGG | 0.996 ± 0.0078 |
| GTGGCGCGGA | 0.959 ± 0.013 |
| GTGGCGGGGA | 1.02 ± 0.038 |
| GTGGCGGTG | 0.985 ± 0.014 |
| GTGGCTATCG | 0.993 ± 0.025 |
| GTGGCTGCGT | 0.9776 ± 0.0063 |
| GTGGCTTGTG | 1 ± 0.029 |
| GTGGGAATTT | 0.9823 ± 0.0081 |
| GTGGGACGGG | 1.03 ± 0.056 |
| GTGGGAGGCT | 1 ± 0.024 |
| GTGGGATTT | 0.995 ± 0.022 |
| GTGGGCTTGT | 0.979 ± 0.048 |
| GTGGGGAATC | 1.02 ± 0.082 |

| Sequence | switch fluorescence ratio |
| --- | --- |
| GTGGGGAGAG | 0.9602 ± 0.0078 |
| GTGGGGCACG | 0.9933 ± 0.0095 |
| GTGGGGCAGC | 0.945 ± 0.015 |
| GTGGGGCATT | 0.9905 ± 0.0086 |
| GTGGGGCGGT | 0.9832 ± 0.006 |
| GTGGGGGAAT | 1 ± 0.011 |
| GTGGGGGGAG | 1 ± 0.026 |
| GTGGGGGGCT | 0.984 ± 0.029 |
| GTGGGGGGGA | 1.01 ± 0.023 |
| GTGGGGGGGG | 0.995 ± 0.038 |
| GTGGGGGTAT | 1.05 ± 0.15 |
| GTGGGGTATT | 0.977 ± 0.028 |
| GTGGGGTCCG | 0.99 ± 0.046 |
| GTGGGGTCGT | 0.926 ± 0.045 |
| GTGGGTGGGT | 1 ± 0.025 |
| GTGGGTTGGT | 1.008 ± 0.0054 |
| GTGGTATCAT | 0.978 ± 0.03 |
| GTGGTATGCA | 1.02 ± 0.074 |
| GTGGTCGCTG | 0.982 ± 0.019 |
| GTGGTGTGGT | 0.982 ± 0.011 |
| GTGGTTCCTG | 0.967 ± 0.015 |
| GTGGTTCGGG | 0.975 ± 0.029 |
| GTGGTTGGAA | 0.963 ± 0.022 |
| GTGGTTTTAT | 0.979 ± 0.013 |
| GTGGTTTTGA | 0.9832 ± 0.0064 |

| Sequence | switch fluorescence ratio |
| --- | --- |
| GTGTAAAGGC | 0.96 ± 0.021 |
| GTGTAAGACC | 1.03 ± 0.027 |
| GTGTAATGGT | 1.03 ± 0.021 |
| GTGTAATTAT | 0.9697 ± 0.0055 |
| GTGTACCGGA | 0.9813 ± 0.0017 |
| GTGTACTCAT | 1.01 ± 0.035 |
| GTGTATAGAG | 0.99 ± 0.051 |
| GTGTATAGTT | 1.02 ± 0.056 |
| GTGTATTAGT | 0.9656 ± 0.003 |
| GTGTATTATT | 0.976 ± 0.02 |
| GTGTATTGGT | 0.983 ± 0.024 |
| GTGTCAGTTG | 0.93646 ± 0.00087 |
| GTGTCCGGGC | 0.979 ± 0.025 |
| GTGTGAAAAC | 1.02 ± 0.02 |
| GTGTGAGATT | 1.02 ± 0.024 |
| GTGTGAGTAG | 1.02 ± 0.039 |
| GTGTGATCTC | 0.992 ± 0.046 |
| GTGTGGAGGG | 1.016 ± 0.0016 |
| GTGTGGCAGG | 0.992 ± 0.024 |
| GTGTGGGAAG | 1.01 ± 0.028 |
| GTGTGGGGAT | 1 ± 0.044 |
| GTGTGGGGCT | 1 ± 0.019 |
| GTGTGTAGGG | 0.999 ± 0.039 |
| GTGTGTCCGG | 0.987 ± 0.026 |
| GTGTGTCTGT | 0.991 ± 0.021 |

| Sequence | switch fluorescence ratio |
| --- | --- |
| GTGTGTGGCT | 0.976 ± 0.051 |
| GTGTGTTAAC | 0.9738 ± 0.0095 |
| GTGTGTTGGG | 0.984 ± 0.026 |
| GTGTGTTTAG | 0.9892 ± 0.0058 |
| GTGTGTTTGC | 1.004 ± 0.0058 |
| GTGTTAAGGA | 0.995 ± 0.02 |
| GTGTTAAGGG | 0.979 ± 0.028 |
| GTGTTAAGTA | 1.0306 ± 0.00088 |
| GTGTTACGTT | 1.02 ± 0.021 |
| GTGTTAGCTA | 1 ± 0.011 |
| GTGTTAGGCT | 0.978 ± 0.012 |
| GTGTTAGGTT | 1.01 ± 0.017 |
| GTGTTCAAGG | 0.971 ± 0.015 |
| GTGTTCATCG | 0.973 ± 0.037 |
| GTGTTCGGGC | 1.02 ± 0.011 |
| GTGTTCTAAA | 1.03 ± 0.041 |
| GTGTTGGTAG | 0.984 ± 0.018 |
| GTGTTGGTTG | 0.982 ± 0.038 |
| GTGTTGGTTT | 0.986 ± 0.024 |
| GTGTTTAAAG | 0.98 ± 0.02 |
| GTGTTTAAGC | 0.978 ± 0.012 |
| GTGTTTATAG | 0.993 ± 0.018 |
| GTGTTTGGGA | 0.997 ± 0.033 |
| GTGTTTGGGG | 0.977 ± 0.023 |
| GTGTTTTCTT | 1.006 ± 0.0025 |
